Data taken from patent US20240309087A1 (SHANGHAI JUNSHI BIOSCIENCES, published 2024).
Values belong to the binder of their own block, whether it stands above or below them.

What was measured:
[1] = biological target: T1, hCD112R mFC recombinant protein (human; murine, UniProt Q6DKI7 41-160); assay: FACS competition, hCD112R mFc on CHO CD112 cells
T1 construct: range 41-160; expressed in 293E cells; also called hCD112R ECD mFC; hCD112R-ECD-mFC; not shown: murine IgG2a Fc domain (MX2-mFc vector)
T1 sequence (looked up): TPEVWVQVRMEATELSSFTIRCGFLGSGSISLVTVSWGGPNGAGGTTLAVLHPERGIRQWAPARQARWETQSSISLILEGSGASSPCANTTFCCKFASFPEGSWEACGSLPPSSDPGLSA
Protocol: Unbound antibodies were then washed with a staining buffer and the cells were incubated with 1% (v/v) goat anti-mouse IgG Fc fluorescent secondary antibodies (Jackson ImmunoResearch) prepared in a staining buffer at 4° C. for 30 min in the dark. Finally, the cells were collected by using a flow cytometer, and the fluorescent antibodies bound to the cell surface were detected. Raw data were analyzed by using FlowJo to obtain MFI values, and a four-parameter curve fitting was performed by using GraphPad Prism software to obtain IC₅₀ values.

[2] = biological target: T1, hCD112R mFC recombinant protein; assay: Biacore T200, antibody captured, hCD112R mFc injected
Protocol: Biacore T200 was used to assay the binding affinity of the anti-CD112R hybridoma antibodies for the recombinant hCD112R mFc protein. […] antibody fragments (Jackson ImmunoResearch) were coupled to the surface of a CM5 chip, and the anti-CD112R hybridoma antibodies were each captured by using the chip, after which recombinant hCD112R mFc proteins at different concentrations were injected into the CM5 chip.

[3] = biological target: T2, human CD112R on Jurkat CD112R effector cells (human, UniProt Q6DKI7 1-326); assay: cell-based or functional assay
T2 sequence (looked up): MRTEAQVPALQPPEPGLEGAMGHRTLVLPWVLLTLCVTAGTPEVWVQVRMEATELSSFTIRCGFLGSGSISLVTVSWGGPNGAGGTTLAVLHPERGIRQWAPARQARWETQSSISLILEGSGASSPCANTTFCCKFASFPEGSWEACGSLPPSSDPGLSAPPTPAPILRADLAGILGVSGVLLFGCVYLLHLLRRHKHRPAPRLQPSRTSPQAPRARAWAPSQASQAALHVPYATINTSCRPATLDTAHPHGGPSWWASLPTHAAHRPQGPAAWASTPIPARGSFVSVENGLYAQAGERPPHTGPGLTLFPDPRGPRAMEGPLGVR

[4] = biological target: T3, human CD112R on CHO-CD112R cells (human, UniProt Q6DKI7 41-326); assay: FACS on CHO-CD112R cells
T3 construct: whole, on cells; also called hCD112R; PVRIG
T3 sequence (looked up): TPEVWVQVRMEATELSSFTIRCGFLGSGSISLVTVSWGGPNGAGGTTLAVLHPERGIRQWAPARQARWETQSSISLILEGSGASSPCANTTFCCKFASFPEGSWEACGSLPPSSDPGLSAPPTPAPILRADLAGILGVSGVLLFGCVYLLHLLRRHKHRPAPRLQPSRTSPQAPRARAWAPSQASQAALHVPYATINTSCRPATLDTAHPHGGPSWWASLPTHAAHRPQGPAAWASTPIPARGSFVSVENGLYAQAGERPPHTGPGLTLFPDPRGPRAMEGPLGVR
Protocol: (§1) CHO-CD112R cells (constructed in-house by Junshi, the amino acid sequence of CD112R in the construction of stable cell lines overexpressing CD112R comprises amino acids at positions Met1-Arg326 under NCBI accession No. Q6DKI7) overexpressing human CD112R were incubated with each of the chimeric anti-CD112R antibodies at different concentrations (initial concentration: 50 μg/mL, 5-fold dilution, 12 concentration gradients in total) at 4° C. for 30 min, and then washed and incubated with a fluorescence-labeled secondary antibody at 4° C. for 30 min in the dark. Finally, the cells were collected by using a flow cytometer (BD Canto II), and the fluorescent antibodies bound to the cell surface were detected. Raw data were analyzed by using FlowJo to obtain MFI values, the antibody dose-dependent binding curves were fitted by using GraphPad (FIG. 3, a and b) and EC₅₀ was calculated (Table 3). The positive control and the negative control were Ref (anti-CD112R antibody, University of Colorado, obtained by expression and purification according to the sequences in US20170240613) and anti-KLH hu-IgG4 antibody, respectively.

[5] = biological target: T4, recombinant cynomolgus monkey CD112R antigen (cynomolgus monkey, UniProt A0A2K5WVV8 1-322); assay: ELISA, coated cynomolgus monkey CD112R
T4 construct: bought
T4 sequence: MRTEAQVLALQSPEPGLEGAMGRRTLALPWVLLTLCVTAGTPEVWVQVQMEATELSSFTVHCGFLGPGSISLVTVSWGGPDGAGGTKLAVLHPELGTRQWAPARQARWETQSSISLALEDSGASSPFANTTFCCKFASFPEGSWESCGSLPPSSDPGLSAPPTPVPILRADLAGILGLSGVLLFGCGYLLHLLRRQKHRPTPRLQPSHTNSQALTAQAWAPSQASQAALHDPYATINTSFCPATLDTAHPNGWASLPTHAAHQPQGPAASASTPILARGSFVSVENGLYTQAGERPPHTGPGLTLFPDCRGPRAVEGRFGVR
Protocol: (§2) A plate was coated with a recombinant cynomolgus monkey CD112R antigen (Acrobiosystems, Cat No. PVG-C5259) at a fixed concentration, and the chimeric anti-CD112R antibodies diluted in a gradient (initial concentration: 1 μg/mL, 2.5-fold gradient dilution, 12 concentration gradients in total) were added to bind to the antigen. Horseradish peroxidase (HRP)-conjugated mouse anti-human IgG4 Fc (Southern Biotech, 9200-05) was subjected to a 5000-fold dilution and used as a detection antibody for detection. The color development was performed with 0.1 mg/mL TMB, and finally stopped with 2 M hydrochloric acid. The plate was read at 420 nm/620 nm. EC₅₀ was obtained by fitting with a four-parameter logistic regression (4PL) model.

[6] = biological target: T3, human CD112R on CHO-CD112R cells; assay: FACS on CHO-CD112R cells; EC50 Ref/EC50 antibody
Protocol: as §1

[7] = biological target: T1, hCD112R mFC recombinant protein; assay: FACS competition, hCD112R mFc on CHO CD112 cells; remark: listed apart in the source
Protocol: (§3) Cells CHO CD112 overexpressing human CD112 were co-incubated with a hCD112R mFc protein solution (5 μg/mL) prepared in a staining buffer (PBS+1% FBS), and the chimeric anti-CD112R antibodies or the control antibodies at different concentrations (initial concentration: 100 μg/mL, 3-fold dilution, 10 concentration gradients) at 4° C. for 30 min. Unbound antibodies were then washed with a staining buffer and the cells were incubated with 1% (v/v) goat anti-mouse IgG Fc fluorescent secondary antibodies (Jackson ImmunoResearch) prepared in a staining buffer at 4° C. for 30 min in the dark. Finally, the cells were collected by using a flow cytometer (BD Canto II), and the fluorescent antibodies bound to the cell surface were detected. Raw data were analyzed by using FlowJo to obtain MFI values, and a four-parameter curve fitting was performed by using GraphPad Prism software to obtain IC₅₀ values. The positive control and the negative control were Ref (anti-CD112R antibody, University of Colorado, obtained by expression and purification according to the sequences in US20170240613) and the anti-KLH hu-IgG4 antibody, respectively.
As shown in FIG. 5 (a and b) and Table 8, the following 13 chimeric antibodies were all capable of effectively blocking the binding of the CD112R protein to CHO-CD112 cells.

[8] = biological target: T4, recombinant cynomolgus monkey CD112R …; assay: ELISA, coated cynomolgus monkey CD112R; EC50 Ref/EC50 antibody
Protocol: as §2

[9] = biological target: T1, hCD112R mFC recombinant protein; assay: FACS competition, hCD112R mFc on CHO CD112 cells; ratio Ref/antibody
Protocol: as §3

[10] = biological target: T1, hCD112R mFC recombinant protein; assay: FACS blocking: hCD112R mFc (5 µg/mL) binding to human CD112 on CHO CD112 cells, MFI-APC; unit from the axis (µg/mL), Table 8 says ng/ml
Protocol: as §3

IC50 [1]: 0.272 µg/mL | Kd [2]: 13.4 pM
B1: 6D2.1 (antibody, V domains shown)
VH: EVQLQQSGPELVKPGASVKISCKASGYTFTDYNIHWVKQSHGKRPDWIGYNYPYNGGAGYNQNFRSRATLTVDKFSSTAYMELRSLTSEDSAVYYCAGEEVRRGPFYFWGQGTSVTVSS
VL: DIQMTQSPDSLSASVGETVTITCRTSENIYSFLVWYQQKQGKSPQLLVYNAKTLAEGVPSRFSGSGSGTQFSLKINSLQPEDFGTYYCQHYYGTPYTFGGGTKLEIK
notes: murine hybridoma antibody

IC50 [1]: 0.148 µg/mL | Kd [2]: 15.8 pM
B2: 8D3.1 (antibody, V domains shown)
VH: QIQLVQSGPELKKPGETVKISCKASGYTFTDYSMHWVKQAPGKGLKWVGWISTETAQPTYADDFRGRFAFSLETSASTAYLQINNLRNEDTATYFCATGNYGWYFSVWGAGTTVTVSS
VL: ENVLTQSPAIMSASPGEKVTMTCRATSGVSSSYLFWYQQKSGASPKIWIYSTSNLASGVPTRFSGSGSGTSYSLTISSVEAEDAATYYCQQYSGYPYTFGGGTKLEIK
notes: murine hybridoma antibody

IC50 [1]: 0.207 µg/mL | Kd [2]: 23.6 pM
B3: 1D11.1 (antibody, V domains shown)
VH: EVQLQQSGPELVKPGASVKISCKASGYPFINYNIHWLRQSRGKSLEWIGYVYPYNGVPGYNQKFKSKATLTADNSFSTAYMEFRSLTSEDSAVYFCARERGRDYFDSWGQGTSLTVSS
VL: DIQLTQSPASLSVSVGETVTITCRVSANIYSNLVWYHQRQGKSPQLLVYGGTNLADGVPSRFSGSGSGTQFSLKINSLQSEDFGSYHCQHFWSTPYTFGGGTKLEIK
notes: murine hybridoma antibody

EC50, CD112R/CD112 reporter [3]: 0.0139 µg/mL | Relative activity (%), EC50 Ref/EC50 antibody [3]: 1870% | EC50 [4]: 0.26 µg/mL | EC50 [5]: 0.00383 µg/mL | Relative activity (%) [6]: 1640% | IC50 [7]: 0.708 µg/mL | Relative activity (%) [8]: 109% | Relative activity (%) [9]: 150% | IC50 [10]: 0.708 µg/mL
B4: Chi-70 (antibody, V domains shown)
VH: DVQLVESGGGLVKLGGSLKLSCVASGFTFSSYHMSWIRQTPEKRLELVAAINSNDINTYYLDTVKGRFTISRDIAKNTLHLQMSSLKSEDTALYYCARHEDYYGFAMDYWGQGTSVTVSS
VL: SIVMTQTPKFLLVSAGDRVTITCKASQSVSNDVAWYQQKPGQSPKLLMYYVSNRFTGVPDRFTGSGYGTDFTFTINTVQAEDLAVYFCQQAYRSPWTFGGGTKLEIK
notes: chimeric

EC50, CD112R/CD112 reporter [3]: 0.019 µg/mL | Relative activity (%), EC50 Ref/EC50 antibody [3]: 1590% | EC50 [4]: 0.107 µg/mL | EC50 [5]: 0.005 µg/mL | Relative activity (%) [6]: 3990% | IC50 [7]: 0.965 µg/mL | Relative activity (%) [8]: 83.8% | Relative activity (%) [9]: 110% | IC50 [10]: 0.965 µg/mL
B5: Chi-61 (antibody, V domains shown)
VH: DVKLVESGGGLVKLGGSLKLSCAASGFTFSSYHMSWVRQTPEKRLELVAAISRDGDSTYYPDTVKGRFTISRDDAENTLYLQMSSLKSEDTALYYCSRHEDYFGFAMDSWGQGTSVTVSS
VL: SIVMTQTPKFLLVSAGDRVTITCKASQSVSNDVAWYQEKPGQSPKLLMYYVSHRFTGVPDRFTGSGYGTDFTFTINTVQAEDLAVYFCHQAYRSPWTFGGGTKLEIK
notes: chimeric

IC50 [1]: 0.0229 µg/mL | Kd [2]: 20.5 pM
B6: 6C6.1 (antibody, V domains shown)
VH: EVQLQQSGPELVRPGASVRISCKASGYTFTDYNMNWVKQSHGKSLEWIGYIYPYNGGAGYNQNFKNKATLTVDTYSRAAYMELRSLTSEDSAVYYCARERGMQRDYFDYWGQGTILTVSS
VL: DIQMTQSPASLSVSVGETVTITCRTSENIYSNLAWYQQKQGKSPQLLVYAATNLADGVPSRFSGSGSGTQFSLKINSLQSGDFGSYFCQHFWGTPYTFGGGTKLEIK
notes: murine hybridoma antibody

IC50 [1]: 0.145 µg/mL | Kd [2]: 17.4 pM
B7: 6A6.1 (antibody, V domains shown)
VH: EVQLQQSGAELVRSGTSVTLSCTASGFNIRDYFIHWVKQRPEQGLEWIGWIIPASGDTDCAPIFQGKATLTADTFSNTAYLHLNSLTSEDTAVYYCNTWVWSPYAVDYWGQGTSVTVSS
VL: DVLMTQTPLSLPVSLGDQTSISCRSSQSIVHSNGNTYLHWYLQKPGQSPKLLIYKVSNRFSGVPDRFSGSGSGTDFTLKISRVEAEDLGVYYCFQGSHVPWTFGGGTRLEIK
notes: murine hybridoma antibody

IC50 [1]: 0.147 µg/mL | Kd [2]: 16.3 pM
B8: 5B1.1 (antibody, V domains shown)
VH: EVQLQQSGAELVRSGTSVTLSCTASGFNIRDYFIHWVKQRPEQGLEWIGWIIPASGDTDCAPIFQGKATLTADTFSNTAYLHLNSLTSEDTAVYYCNTWVWSPYAVDYWGQGTSVTVSS
VL: DIVMTQFPSSLSVPVGEKVTMNCKSSQSLLNSGNQKNFLAWYQQKPGQPPKLLIYGASTRESGVPYRFTGSGSGTDFTLTISSVQAEDLAVYYCQNDHSYPWTFGGGTKLEIK
notes: murine hybridoma antibody
